Experimental data as given in patent US10662230B2, “Cyclic RGD cell-binding motif and uses thereof” (Spiber Technologies AB, priority 2015, dated 2020).

Key:
Format in all cases: cell-based
[1] = tested on: Normal human epidermal keratinocytes (KC); assay: Early attachment assay, keratinocytes on silk films; conditions: for adhesion in each individual experiment: KC on tested silk films
Method: Normal human epidermal keratinocytes from adult skin (NHEK-ad) were purchased from Lonza. Subculture, proliferation and migration experiments were done in KGM-Gold (Lonza), containing bovine pituitary extract, whereas adhesion experiments were performed in KGM-CD (chemically defined), supplemented with CaCl2) to give 1.2 mM Ca^2+.
Cells were harvested at passage 3-8, seeded at 20 000/cm^2 and allowed to adhere to the films or controls for 1 h in a cell incubator before gentle washing twice with pre-warmed phosphate buffered saline (PBS) followed by 10 min fixation with 96% ethanol. After three washings in water, cells were stained for 30 min with 0.1% Crystal Violet in H2O. Plates were dried after extensive washing in water.
Attachment and morphology of cells bound to the films obtained in Example 3 were documented by taking micrographs at 2× and 10× magnification in an inverted bright field microscope. The color was then dissolved in 40 μL 20% acetic acid for 10 min, and 35 μL of the solution was transferred to a 384-well plate for optical density measurement at 595 nm (TECAN Infinite M200). Wells with cells fixed without pre-washing was used as positive control. Wells with no cells were used as blank. Experiments were run in hexaplicates and repeated three times.
Determination of cell coverage area within a defined region (9.12 mm^2) of the micrographs (at 2× magnification) was done using the software NIS elements BR (Nikon).
After seeing this positive effect of the introduced FNCC motif, we wanted to find out how well the FNCC-silk would compare to native, full length fibronectin, where the RGD is presented on a turn loop constrained by the structure. We therefore used fibronectin from bovine plasma (BFN) to coat cell culture wells, as well as naked cell culture treated plastic (TCT), on which KC can be cultured, as a control. Serum-free experimental conditions was chosen to avoid possible interactions between the matrices and serum proteins that potentially could give rise to increased cell adherence.
For this purpose, we used two FN-silk variants where a linear RGD presentation is expected (FIG. 1a). The first variant (FNVS; SEQ ID NO: 15), contains the original sequence of the RGD-containing motif in fibronectin, to show the effect of the native flanking amino acids without influence of the loop conformation. In the second variant (FNSS; SEQ ID NO: 14), the two flanking cysteines in FNCC were substituted for serine, which resembles cysteine but lacks the —SH-group and is therefore unable to form disulfide bridges. The different FN-silk variants, as well as RGD-silk (SEQ ID NO: 16) and WT-silk (SEQ ID NO: 2), were evaluated with primary KC. Cells were analyzed both for early attachment (FIG. 5), spreading and formation of stress fibers (FIG. 6), and focal adhesions (FIG. 7). Early attachment assay and cellular stainings were performed as detailed in Example 6.

[2] = tested on: Normal human epidermal keratinocytes (KC); assay: Formation of focal adhesions (F-actin/vinculin staining), keratinocytes; conditions: 3 h adherence, 63× magnification
Method: Cells were harvested at passage 3-8, seeded at 3500/cm^2 and allowed to adhere onto films for 20 min, 1 or 3 hours in chamber slides. After gentle washing, cells were fixed with 4% paraformaldehyde, permeabilized with 0.1% Triton X-100 in PBS, and blocked with 1% bovine serum albumin (BSA, AppliChem) in PBS.
Primary antibody were used at the following concentrations in 1% BSA: mouse anti human vinculin (Sigma V9131) at 9.5 μg/ml, mouse-anti human beta1-integrin (activated conformation, clone HUTS-4) at 3.3 μg/mL, or mouse-anti human alpha5-integrin (ligand bound conformation, clone SNAKA-51) at 2.5 μg/mL, both Millipore.
Secondary antibody was AlexaFlour488 goat anti mouse IgG (H+L), cross adsorbed (Invitrogen), used at 1:500. Phalloidin-AlexaFluor594 (Life Technologies) were used at 1:40 to detect filamentous actin. DAPI was used for nuclear staining. Slides were mounted in Fluorescence mounting medium (Dako, Copenhagen).
For microscopic analysis of cell adhesion (formation of focal adhesions and stress fibers), a confocal microscope was used (Carl Zeiss LSM 710) at 10× and 63× magnification.
Quality of focal adhesions were graded from 1-4 regarding presence of small and dim focal adhesion (=1p), small and distinct focal adhesions (=2p), abundant focal adhesions (=3p) and large and bright focal adhesions (=4p), and multiplied with the portion of positive cells expressing this specific type of focal adhesions (0-4, where 0≈none of, 1≈one fourth of, 2≈half of, 3≈three fourths of, and 4≈all of the focal adhesion-positive cells.)
Formation of focal adhesions within the cells was analyzed after 3 h by staining for F-actin in combination with vinculin, which is one of the major components of the focal adhesion complex. Co-staining of F-actin and vinculin is thus a sign of integrin-involved, well established binding of cells to the underlying substrate. Focal adhesions appear as yellow-greenish elongations of the F-actin filaments, often situated close to the cell membrane.
The results from the analysis of formation and characterization of focal adhesions in KC after adherence for 3 h onto films of WT-silk (SEQ ID NO: 2) or silk functionalized with FNCC (SEQ ID NO: 13), FNVS (SEQ ID NO: 15), FNSS (SEQ ID NO: 14) or RGD (SEQ ID NO: 16) is presented in FIG. 7. Slides were scanned with a confocal microscope at 10× for overview (FIG. 7a) and at 63× for details (FIG. 7b). Two types of grading of the focal adhesions in the cells were performed.

[3] = tested on: Normal human epidermal keratinocytes (KC); assay: Cell spreading by F-actin staining, keratinocytes; conditions: 3 h adhesion; for spreading of KC (total cell area in 4× micrographs): seeding 3 500/cm^2
Method: Cells were harvested at passage 3-8, seeded at 3500/cm^2 and allowed to adhere onto films for 20 min, 1 or 3 hours in chamber slides. After gentle washing, cells were fixed with 4% paraformaldehyde, permeabilized with 0.1% Triton X-100 in PBS, and blocked with 1% bovine serum albumin (BSA, AppliChem) in PBS. Secondary antibody was AlexaFlour488 goat anti mouse IgG (H+L), cross adsorbed (Invitrogen), used at 1:500. Phalloidin-AlexaFluor594 (Life Technologies) were used at 1:40 to detect filamentous actin. DAPI was used for nuclear staining. Slides were mounted in Fluorescence mounting medium (Dako, Copenhagen). The stained cells were analyzed using an inverted microscope (Nikon Eclipse Ti) at 4× and 10× magnification. Excitation at 563/45 nm and detection at 625/50 nm was used for red fluorescence, whereas excitation with 387/11 nm and detection at 447/60 nm was used to monitor blue fluorescence. By staining for F-actin, cell spreading and formation of stress fibers in KC after 3 h adhesion were investigated (FIG. 6).

Molecule | cell coverage area within a defined region (9.12 mm^2) ([1]; KC, 1 h adhesion, comparison with bovine fibronectin coating and TCT plastic, serum-free) | quality (grading) of focal adhesions [2] | adhesion in each individual experiment [1] | cell morphology (F-actin) [3] | spreading of KC (total cell area in 4× micrographs) [3]
BFN: fibronectin from bovine plasma (Sigma-Aldrich F1137), coated at 5 μg/cm^2 [reference compound] | bound equally well to the BFN and the FNCC-silk after 1 h adherence, and importantly both significantly better than TCT | – | – | – | –
FNSS-silk: 4RepCT silk with linear control motif STGRGDSPAS (SEQ ID NO: 11), cysteines substituted for serines (protein, Fusion protein) GPNSSTGRGDSPASGSASGQGGYGGLGQGGYGQGAGSSAAAAAAAAAAAAGGQGGQGQGGYGQGSGGSAAAAAAAAAAAAAAAGRGQGGYGQGSGGNAAAAAAAAAAAAAAAGQGGQGGYGRQSQGAGSAAAAAAAAAAAAAAGSGQGGYGGQGQGGYGQSSASASAAASAASTVANSVSRLSSPSAVSRVSSAVSSLVSNGQVNMAALPNIISNISSSVSASAPGASGCEVIVQALLEVITALVQIVSSSSVGYINPSAVNQITNVVANAMAQVMG | – | both prominent and subtle focal adhesions | varied from being similar to RGD-silk to being only somewhat lower than on FNCC-silk | a higher proportion of cells with a rounded appearance | but not FNSS or FNVS films, gave a significantly increased spreading of KC compared to RGD-film
FNVS-silk: 4RepCT silk with original fibronectin motif VTGRGDSPAS (SEQ ID NO: 9), linear native control (protein, Fusion protein) GPNSVTGRGDSPASGSASGQGGYGGLGQGGYGQGAGSSAAAAAAAAAAAAGGQGGQGQGGYGQGSGGSAAAAAAAAAAAAAAAGRGQGGYGQGSGGNAAAAAAAAAAAAAAAGQGGQGGYGRQSQGAGSAAAAAAAAAAAAAAGSGQGGYGGQGQGGYGQSSASASAAASAASTVANSVSRLSSPSAVSRVSSAVSSLVSNGQVNMAALPNIISNISSSVSASAPGASGCEVIVQALLEVITALVQIVSSSSVGYINPSAVNQITNVVANAMAQVMG | – | both prominent and subtle focal adhesions | varied from being similar to RGD-silk to being only somewhat lower than on FNCC-silk | a higher proportion of cells with a rounded appearance | but not FNSS or FNVS films, gave a significantly increased spreading of KC compared to RGD-film
RGD-silk: 4RepCT silk with the linear RGD containing peptide (SEQ ID NO 12) of Widhe et al. (2013) (protein, Fusion protein) GPNSRGDAGAASGQGGYGGLGQGGYGQGAGSSAAAAAAAAAAAAGGQGGQGQGGYGQGSGGSAAAAAAAAAAAAAAAGRGQGGYGQGSGGNAAAAAAAAAAAAAAAGQGGQGGYGRQSQGAGSAAAAAAAAAAAAAAGSGQGGYGGQGQGGYGQSSASASAAASAASTVANSVSRLSSPSAVSRVSSAVSSLVSNGQVNMAALPNIISNISSSVSASAPGASGCEVIVQALLEVITALVQIVSSSSVGYINPSAVNQITNVVANAMAQVMG | – | variation of focal adhesion quality is larger in cells on RGD, FNSS and FNVS than on FNCC-silk | – | a higher proportion of cells with a rounded appearance | –
